For 2 substances, IC50 and percent displacement of 125I Cry1Ab binding results are on record in patent US20130036520A1.

As usually defined, the IC50 is the midpoint of a concentration-inhibition curve. Low readings indicate inhibition by little substance, high ones a need for much substance.

Test [1] deals with Cry1Ab receptor sites located in BBMV's (brush border membrane vesicles) from Ostrinia nubilalis larval midgut (Ostrinia nubilalis). Nature of the test: homologous radioligand competition, unlabeled Cry1Ab against 0.5 nM 125I Cry1Ab on O. nubilalis BBMVs.
Test [2] has the same target. Nature of the test: heterologous radioligand competition, unlabeled DIG-3 against 0.5 nM 125I Cry1Ab on O. nubilalis BBMVs. A general note: Displacement assays read how much labelled ligand stays bound in the presence of the test substance.

As to “Cry1Ab toxin, trypsin activated, non-radioactive (unlabeled homologous competitor) (from UniProt P0A370 29-607)”, the IC50 in test [1] amounted to 0.5 nM.

In test [2], “DIG-3 toxin, trypsin activated (unlabeled heterologous competitor)” displayed a percent displacement of 125I Cry1Ab binding at 300 nM DIG-3 of 25%.
